Results from patent US20130281659.

Tests used:
[1] = molecular target: K6C, K48C-linked branched Ub trimer
[2] = molecular target: K11C, K48C-linked branched Ub trimer
[3] = molecular target: K48C, K63C-linked branched Ub trimer

B1: IsoT (protein)
chain: MAELSEEALLSVLPTIRVPKAGDRVHKDECAFSFDTPESEGGLYICMNTFLGFGKQYVERHFNKTGQRVYLHLRRTRRPKEEDPATGTGDPPRKKPTRLAIGVEGGFDLSEEKFELDEDVKIVILPDYLEIARDGLGGLPDIVRDRVTSAVEALLSADSASRKQEVQAWDGEVRQVSKHAFSLKQLDNPARIPPCGWKCSKCDMRENLWLNLTDGSILCGRRYFDGSGGNNHAVEHYRETGYPLAVKLGTITPDGADVYSYDEDDMVLDPSLAEHLSHFGIDMLKMQKTDKTMTELEIDMNQRIGEWELIQESGVPLKPLFGPGYTGIRNLGNSCYLNSVVQVLFSIPDFQRKYVDKLEKIFQNAPTDPTQDFSTQVAKLGHGLLSGEYSKPVPESGDGERVPEQKEVQDGIAPRMFKALIGKGHPEFSTNRQQDAQEFFLHLINMVERNCRSSENPNEVFRFLVEEKIKCLATEKVKYTQRVDYIMQLPVPMDAALNKEELLEYEEKKRQAEEEKMALPELVRAQVPFSSCLEAYGAPEQVDDFWSTALQAKSVAVKTTRFASFPDYLVIQIKKFTFGLDWVPKKLDVSIEMPEELDISQLRGTGLQPGEEELPDIAPPLVTPDEPKGSLGFYGNEDEDSFCSPHFSSPTSPMLDESVIIQLVEMGFPMDACRKAVYYTGNSGAEAAMNWVMSHMDDPDFANPLILPGSSGPGSTSAAADPPPEDCVTTIVSMGFSRDQALKALRATNNSLERAVDWIFSHIDDLDAEAAMDISEGRSAADSISESVPVGPKVRDGPGKYQLFAFISHMGTSTMCGHYVCHIKKEGRWVIYNDQKVCASEKPPKDLGYIYFYQRVAS
[1]
  DUB-catalyzed hydrolysis of Ub trimer, SDS-PAGE and western blot: IsoT efficiently processed all three trimers as evidenced by Western blot analysis
[2]
  DUB-catalyzed hydrolysis of Ub trimer, SDS-PAGE and western blot: IsoT efficiently processed all three trimers as evidenced by Western blot analysis
[3]
  DUB-catalyzed hydrolysis of Ub trimer, SDS-PAGE and western blot: IsoT efficiently processed all three trimers as evidenced by Western blot analysis

B2: A20-OTU (protein)
chain: LVALKTNGDGNCLMHATSQYMWGVQDTDLVLRKALFSTLKETDTRNFKFRWQLESLKSQEFVETGLCYDTRNWNDEWDNLIKMASTDTPMARSGLQYNSLEEIHIFVLCNILRRPIIVISDKMLRSLESGSNFAPLKVGGIYLPLHWPAQECYRYPIVLGYDSHHFVPLVTL
[1]
  DUB-catalyzed hydrolysis of Ub trimer, SDS-PAGE and western blot: the same linkage remained intact in the K6C, K48C-linked trimer
[2]
  DUB-catalyzed hydrolysis of Ub trimer, SDS-PAGE and western blot: A20-OTU cleaved the K48C-linkage in K11C, K48C and K48C, K63C-linked trimers
[3]
  DUB-catalyzed hydrolysis of Ub trimer, SDS-PAGE and western blot: A20-OTU cleaved the K48C-linkage in K11C, K48C and K48C, K63C-linked trimers

B3: AMSH (protein)
chain: MSDHGDVSLPPEDRVRALSQLGSAVEVNEDIPPRRYFRSGVEIIRMASIYSEEGNIEHAFILYNKYITLFIEKLPKHRDYKSAVIPEKKDTVKKLKEIAFPKAEELKAELLKRYTKEYTEYNEEKKKEAEELARNMAIQQELEKEKQRVAQQKQQQLEQEQFHAFEEMIRNQELEKERLKIVQEFGKVDPGLGGPLVPDLEKPSLDVFPTLTVSSIQPSDCHTTVRPAKPPVVDRSLKPGALSNSESIPTIDGLRHVVVPGRLCPQFLQLASANTARGVETCGILCGKLMRNEFTITHVLIPKQSAGSDYCNTENEEELFLIQDQQGLITLGWIHTHPTQTAFLSSVDLHTHCSYQMMLPESVAIVCSPKFQETGFFKLTDHGLEEISSCRQKGFHPHSKDPPLFCSCSHVTVVDRAVTITDLR
[3]
  DUB-catalyzed hydrolysis of Ub trimer, SDS-PAGE and western blot: the presence of a Ub appendage at position 48 does not influence cleavage of the K63C-linkage as indicated by the formation of Ub2 and Ub upon hydrolysis of the K48C, K63C-linked trimer
